Data from patent US20140178390A1 (published 2014).

T1: Cynomolgus CXCR7 (cynomolgus, UniProt P25106 1-362 (human entry))
T1 construct: On transfected HEK293 cells; also called cCXCR7; cyno CXCR7
T1 chain: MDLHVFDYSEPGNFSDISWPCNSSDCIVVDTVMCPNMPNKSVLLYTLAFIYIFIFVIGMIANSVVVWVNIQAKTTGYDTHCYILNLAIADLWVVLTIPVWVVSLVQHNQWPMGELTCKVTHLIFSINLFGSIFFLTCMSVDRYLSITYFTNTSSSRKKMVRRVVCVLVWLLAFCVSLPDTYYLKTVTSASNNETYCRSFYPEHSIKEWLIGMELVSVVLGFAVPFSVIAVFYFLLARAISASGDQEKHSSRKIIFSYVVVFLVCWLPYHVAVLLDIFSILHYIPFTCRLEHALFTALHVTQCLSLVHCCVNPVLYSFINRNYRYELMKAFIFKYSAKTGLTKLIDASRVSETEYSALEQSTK


Tests used:
Human CXCR7 [1] = target: T2, Human CXCR7 (human, UniProt P25106 1-362); assay: FACS, Hek293 hCXCR7 over Hek293 wt cells
T2 construct: see assay field; also called hCXCR7
T2 sequence (P25106 whole entry): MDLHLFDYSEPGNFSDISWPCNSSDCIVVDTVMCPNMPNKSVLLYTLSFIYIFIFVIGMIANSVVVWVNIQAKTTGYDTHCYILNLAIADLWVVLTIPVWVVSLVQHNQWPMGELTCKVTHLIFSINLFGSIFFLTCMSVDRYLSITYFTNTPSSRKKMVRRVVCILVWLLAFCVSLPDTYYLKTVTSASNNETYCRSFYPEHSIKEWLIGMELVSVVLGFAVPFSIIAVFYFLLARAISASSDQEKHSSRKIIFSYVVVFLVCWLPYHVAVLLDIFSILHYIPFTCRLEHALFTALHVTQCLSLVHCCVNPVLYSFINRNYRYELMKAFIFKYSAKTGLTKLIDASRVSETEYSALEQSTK
Procedure: (§1) Clones representing distinct Nanobody B-cell lineages were tested as periplasmic extracts for their binding to cell surface exposed CXCR7. In this assay, 5-fold dilutions of periplasmic extract were incubated with Hek293 hCXCR7 and Hek293 wt cells. Binding of the Nanobodies was detected using mouse anti-myc (Serotec), followed by anti-mouse IgG-PE (Jackson Immununoresearch).

Human CXCR7 [2] = target: T2, Human CXCR7; assay: FACS, periplasmic extract on Hek293 hCXCR7 cells
Procedure: as §1

Human CXCR7 [3] = target: T2, Human CXCR7; assay: phage ELISA on immobilized hCXCR7 VLPs, OD 450 nm
Procedure: (§2) From all round 2 selection outputs clones were screened in phage ELISA on 2 units of immobilized CXCR7VLPs applying 10-fold dilutions of phage supernatant. […] The reaction was stopped with H₂SO₄ and the absorbance was measured at 450 nm using Sunrise TECAN spectrophotometer (TECAN). Nanobodies, showing a minimally 2-fold increased ELISA signal on hCXCR7VLPs over non-transfected control VLPs, were considered to be CXCR7 specific. CXCR7 specific Nanobodies were sequenced and redundant Nanobodies (identical AA sequence) were removed.

Human CXCR7 [4] = target: T2, Human CXCR7; assay: phage ELISA, hCXCR7 VLPs over non-transfected control VLPs
Procedure: as §2

Human CXCR7 [5] = target: T2, Human CXCR7; assay: [125I]-CXCL12 displacement on NIH3T3-hCXCR7 cells
Procedure: (§3) After incubation, cells were washed twice, lysed with RIPA buffer and the ¹²⁵I signal was measured.

Human CXCR7 [6] = target: T2, Human CXCR7; assay: FACS binding, purified protein on stable HEK-CXCR7 cells
Cynomolgus CXCR7 = target: T1, Cynomolgus CXCR7; assay: FACS on HEK293 cells expressing cynomolgus CXCR7, 800 nM Nanobody
Procedure: (§4) HEK293 cells transfected respectively with pcDNA3.1-hCXCR7 and pcDNA3.1-mCXCR7 were used to test cross-reactive binding of Nanobodies to mouse CXCR7 in FACS analysis. […] Nanobody binding was detected using mouse anti-myc (Serotec) and anti-mouse IgG-PE (Jackson Immunoresearch) and Mab binding by goat anti-mouse IgG-PE (Jackson Immunoresearch).
Cross-reactive binding to cynomolgus CXCR7 was assessed in the same way.

Mouse CXCR7 [7] = target: T3, Mouse CXCR7 (mouse, UniProt P56485 1-362); assay: FACS on HEK293 cells transfected with pcDNA3.1-mCXCR7, 800 nM Nanobody
T3 construct: On transfected HEK293 cells; also called mCXCR7
T3 sequence (P56485 whole entry): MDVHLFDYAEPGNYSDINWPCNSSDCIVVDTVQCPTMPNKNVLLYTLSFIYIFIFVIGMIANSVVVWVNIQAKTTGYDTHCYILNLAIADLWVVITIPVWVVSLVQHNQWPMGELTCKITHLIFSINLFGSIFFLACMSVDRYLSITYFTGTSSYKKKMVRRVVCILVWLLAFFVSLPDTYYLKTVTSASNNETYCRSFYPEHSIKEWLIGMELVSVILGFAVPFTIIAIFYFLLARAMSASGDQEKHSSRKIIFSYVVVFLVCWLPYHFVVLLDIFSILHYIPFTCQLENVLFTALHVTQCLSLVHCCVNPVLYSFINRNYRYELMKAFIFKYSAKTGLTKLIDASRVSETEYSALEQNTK
Excerpt: as §4

Human CXCR7 [8] = target: T2, Human CXCR7; assay: [125I]-CXCL12 displacement on NIH3T3-hCXCR7 cells, relative to cold SDF-1
Procedure: as §3

Mouse CXCR7 [9] = target: T3, Mouse CXCR7; assay: FACS on HEK293 cells transfected with pcDNA3.1-mCXCR7
Excerpt: as §4

Human CXCR7 [10] = target: T2, Human CXCR7; assay: competition FACS with 4 nM biotinylated SDF-1 on HEK-hCXCR7 cells

Row | Binder | Fold Hek CXCR7/CXCR4 (Human CXCR7 [1]) [fold] | Hek-CXCR7 [MCF] (Human CXCR7 [2]) | CXCR7-LP 2U/well [OD] (Human CXCR7 [3]) | Fold CXCR7-LP/Null-LP (Human CXCR7 [4]) [fold] | Ki (Human CXCR7 [5]) [nM] | Plateau [mcf] (Human CXCR7 [6]) | binding result (Cynomolgus CXCR7) | binding result (Mouse CXCR7 [7]) | Average SDF-1 displacement (%) (Human CXCR7 [8]) | binding result (Mouse CXCR7 [9]) | competition relative to unlabelled SDF-1 (%) (Human CXCR7 [10])
1 | Nanobody 08A05 with Tag-1 (VHH, periplasmic extract in the screening FACS) VHH: EVQLVESGGGLVQAGDSLRLSCAASGLTFSNYDMGWFRQAPGKEREFVGASWWSGGAPYYSDSVKGRFTISRDNAKNTVYLQANSLRPEDTAVYYCAAKRLRSFASGGSYDYWGQGTQVTVSS | 60.1 | 18600 | 0.019 | 2.4 | – | – | – | – | – | – | –
2 | Nanobody 08A05 with Tag-2 (VHH, Purified from E. coli periplasm) VHH: EVQLVESGGGLVQAGDSLRLSCAASGLTFSNYDMGWFRQAPGKEREFVGASWWSGGAPYYSDSVKGRFTISRDNAKNTVYLQANSLRPEDTAVYYCAAKRLRSFASGGSYDYWGQGTQVTVSS | – | – | – | – | 13.6 | 28500 | binds | binds | 77 | – | –
3 | Mab 11G8 (R&D Systems) (antibody, V domains shown) VH: EVKLVESGGDLVQPGGSLKLSCATSGFTFSDYYMFWVRQTPEKRLEWVAYITNGGDRSYYSDTVTGRFIISRDNAKNTLYLQMSRLKSEDTAMYYCARQGNWAAWFVYWGQGTLVTVSA VL: DVLMTQTPLSLPVSLGDQASISCRSSHYIVHSDGNTYLEWYLQKPGQSPKLLIYKVSNRFSGVPDRFSGSGSGTDFTLKISRVEAEDLGIYYCFQGSHVPLTFGAGTKLELKR | – | – | – | – | 4.4 | – | – | – | 24 | – | –
4 | Nanobody 01C10 with Tag-1 (VHH) VHH: EVQLVESGGGLVQTGASLRLSCAASGRTFSNYAMGWFRQAPGKERERVAAITPRAFTTYYADSVKGRFTISRDNAKNTAYLQMVSLKPEDTAVYYCAAQLVGSGSNLGRQESYAYWGQGTQVTVSS | – | – | 0.145 | 4.2 | – | – | – | – | – | – | –
5 | Nanobody 01C10 with Tag-2 (VHH, Purified from E. coli periplasm) VHH: EVQLVESGGGLVQTGASLRLSCAASGRTFSNYAMGWFRQAPGKERERVAAITPRAFTTYYADSVKGRFTISRDNAKNTAYLQMVSLKPEDTAVYYCAAQLVGSGSNLGRQESYAYWGQGTQVTVSS | – | – | – | – | 20.7 | – | binds | binds | 31 | – | –
6 | Nanobody 07B11 with Tag-1 (VHH, periplasmic extract in the screening FACS) VHH: EVQLVESGGNLVQAGGSLGLSCAASVSISSIHIMGWYRQAPGKQRDLVATITSGGSTAYADSVKGRFTVSKDNAKNTVYLQMDSLKPEDTSVYYCAAEVRNGVFGKWNHYWGQGTQVTVSS | 110 | 42900 | 0.041 | 4.1 | – | – | – | – | – | – | –
7 | Nanobody 07B11 with Tag-2 (VHH, Purified from E. coli periplasm) VHH: EVQLVESGGNLVQAGGSLGLSCAASVSISSIHIMGWYRQAPGKQRDLVATITSGGSTAYADSVKGRFTVSKDNAKNTVYLQMDSLKPEDTSVYYCAAEVRNGVFGKWNHYWGQGTQVTVSS | – | – | – | – | 96.1 | 24900 | binds | – | 75 | no binding (tested: 800 nM) | –
8 | Nanobody 07C03 with Tag-1 (VHH, periplasmic extract in the screening FACS) VHH: EVQLVESGGGLVQAGESLTLSCAASGRTLSAYIMGWFRQAPGKEREFVAGIWSGGYTHLADSAKGRFSISRDNAKNTVYLQMNGLKPEDTAVYYCAAGLRGRQYSNWGQGTQVTVSS | 73.2 | 23400 | 0.053 | 4.4 | – | – | – | – | – | – | –
9 | Nanobody 07C03 with Tag-2 (VHH, Purified from E. coli periplasm) VHH: EVQLVESGGGLVQAGESLTLSCAASGRTLSAYIMGWFRQAPGKEREFVAGIWSGGYTHLADSAKGRFSISRDNAKNTVYLQMNGLKPEDTAVYYCAAGLRGRQYSNWGQGTQVTVSS | – | – | – | – | 12.2 | 33100 | binds | binds | 78 | – | > 95
10 | Nanobody 08A10 with Tag-1 (VHH, periplasmic extract in the screening FACS) VHH: EVQLVESGGGLVQAGGSLRLSCAASGSIFSIAAMGWYRQATGKQRELVATITDGGTTTYADSVKGRVTISRDRSANTVYLAMNNLKPDDTAVYYCYAYLRYTSRVPGDNYWGQGTQVTVSS | 85.1 | 27400 | 0.104 | 17.3 | – | – | – | – | – | – | –
11 | Nanobody 08A10 with Tag-2 (VHH, Purified from E. coli periplasm) VHH: EVQLVESGGGLVQAGGSLRLSCAASGSIFSIAAMGWYRQATGKQRELVATITDGGTTTYADSVKGRVTISRDRSANTVYLAMNNLKPDDTAVYYCYAYLRYTSRVPGDNYWGQGTQVTVSS | – | – | – | – | 12.1 | 34900 | binds | – | 75 | no binding (tested: 800 nM) | –
